Measured values taken from article PMC9482650, “Quantitative fragmentomics allow affinity mapping of interactomes” (Nature Communications, 2022).

T1: MPP6, Q9NZW5
T1 sequence (Q9NZW5 125-219, limits assumed, looked up): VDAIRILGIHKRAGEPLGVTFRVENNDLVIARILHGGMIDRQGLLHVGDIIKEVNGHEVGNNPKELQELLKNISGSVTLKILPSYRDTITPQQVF

T2: GRIP1_4, Q9Y3R0
T2 sequence (Q9Y3R0 467-571, limits assumed, looked up): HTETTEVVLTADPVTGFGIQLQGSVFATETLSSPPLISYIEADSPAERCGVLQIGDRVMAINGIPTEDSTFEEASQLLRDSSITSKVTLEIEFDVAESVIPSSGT

T3: PCLO, Q9Y6V0
T3 sequence (Q9Y6V0 4491-4600, limits assumed, looked up): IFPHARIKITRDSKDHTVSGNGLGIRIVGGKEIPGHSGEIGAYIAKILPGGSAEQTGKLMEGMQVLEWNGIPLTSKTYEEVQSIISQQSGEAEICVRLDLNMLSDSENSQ

T4: ARHGAP21, Q5T5U3
T4 sequence (Q5T5U3 45-169, limits assumed, looked up): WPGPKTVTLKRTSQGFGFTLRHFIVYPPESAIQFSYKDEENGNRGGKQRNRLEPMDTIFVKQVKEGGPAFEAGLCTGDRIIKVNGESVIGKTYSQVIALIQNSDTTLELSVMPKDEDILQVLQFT

T5: MPP2, Q14168
T5 sequence (Q14168 180-250, limits assumed, looked up): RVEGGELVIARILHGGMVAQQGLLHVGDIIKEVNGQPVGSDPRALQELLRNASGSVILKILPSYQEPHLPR

T6: NHERF3_3, Q5T2W1
T6 sequence (Q5T2W1 238-333, limits assumed, looked up): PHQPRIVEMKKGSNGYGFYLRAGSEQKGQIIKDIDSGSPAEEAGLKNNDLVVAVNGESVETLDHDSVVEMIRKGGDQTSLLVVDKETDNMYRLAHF

T7: APBA2_2, Q99767
T7 sequence (Q99767 654-744, limits assumed, looked up): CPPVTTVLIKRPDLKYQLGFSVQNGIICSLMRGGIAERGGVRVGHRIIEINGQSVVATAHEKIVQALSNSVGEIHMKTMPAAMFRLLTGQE

T8: APBA1_2, Q02410
T8 sequence (Q02410 742-832, limits assumed, looked up): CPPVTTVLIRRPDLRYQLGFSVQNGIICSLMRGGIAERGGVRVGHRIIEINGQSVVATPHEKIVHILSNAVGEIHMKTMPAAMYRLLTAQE

T9: SNTA1, Q13424
T9 sequence (Q13424 82-180, limits assumed, looked up): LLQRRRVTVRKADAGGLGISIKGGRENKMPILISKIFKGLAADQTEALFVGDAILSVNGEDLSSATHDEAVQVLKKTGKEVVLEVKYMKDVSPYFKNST


Experiments:
Assay in all cases: holdup assay
Set-up in all cases: key: below the threshold = too weak to quantify, mostly under pKd 3.1 to 4
Details in all cases: plain residues with an end cap or a label only (N-terminal biotin on a linker: ado-ado)
LIMK2, P53671 = target: LIMK2, P53671
MPP6, Q9NZW5 = target: T1, MPP6, Q9NZW5
GRIP1_4, Q9Y3R0 = target: T2, GRIP1_4, Q9Y3R0
FRMPD2_1, Q68DX3 = target: FRMPD2_1, Q68DX3
CASK, O14936 = target: CASK, O14936
NHERF2_2, Q15599 = target: NHERF2_2, Q15599
MAGI3_2, Q5TCQ9 = target: MAGI3_2, Q5TCQ9
PCLO, Q9Y6V0 = target: T3, PCLO, Q9Y6V0
GORASP2, Q9H8Y8 = target: GORASP2, Q9H8Y8
ARHGAP21, Q5T5U3 = target: T4, ARHGAP21, Q5T5U3
IL16_4, Q14005 = target: IL16_4, Q14005
MAGI2_4, Q86UL8 = target: MAGI2_4, Q86UL8
TJP2_1, Q9UDY2 = target: TJP2_1, Q9UDY2
MPP2, Q14168 = target: T5, MPP2, Q14168
FRMPD4, Q14CM0 = target: FRMPD4, Q14CM0
NHERF3_3, Q5T2W1 = target: T6, NHERF3_3, Q5T2W1
GRID2IP_1, A4D2P6 = target: GRID2IP_1, A4D2P6
ARHGEF12, Q9NZN5-2 = target: ARHGEF12, Q9NZN5-2
DLG2_2, Q15700 = target: DLG2_2, Q15700
DLG4_1, P78352 = target: DLG4_1, P78352
APBA2_2, Q99767 = target: T7, APBA2_2, Q99767
APBA1_2, Q02410 = target: T8, APBA1_2, Q02410
MAGI2_6, Q86UL8 = target: MAGI2_6, Q86UL8
SNTA1, Q13424 = target: T9, SNTA1, Q13424
PDLIM1, O00151 = target: PDLIM1, O00151
Inadl_2, Q8NI35 = target: Inadl_2, Q8NI35
GRIP2_3, Q9C0E4 = target: GRIP2_3, Q9C0E4
DLG1_1, Q12959 = target: DLG1_1, Q12959

Sequence of MAGI3_2, Q5TCQ9 (Q5TCQ9 398-503): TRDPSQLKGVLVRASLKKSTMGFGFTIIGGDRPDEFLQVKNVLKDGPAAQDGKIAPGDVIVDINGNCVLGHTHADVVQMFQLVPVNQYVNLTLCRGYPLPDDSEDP
Sequence of ARHGEF12, Q9NZN5-2 (Q9NZN5 other isoform, or with tags, fused parts or gaps): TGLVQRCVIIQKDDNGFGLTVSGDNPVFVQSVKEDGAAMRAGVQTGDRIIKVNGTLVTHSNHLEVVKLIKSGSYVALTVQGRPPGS
Sequence of PDLIM1, O00151 (O00151 1-87): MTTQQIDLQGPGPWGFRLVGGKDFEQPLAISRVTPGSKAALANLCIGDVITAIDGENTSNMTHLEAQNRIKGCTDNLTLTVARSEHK
Sequence of GRID2IP_1, A4D2P6 (A4D2P6 1-87): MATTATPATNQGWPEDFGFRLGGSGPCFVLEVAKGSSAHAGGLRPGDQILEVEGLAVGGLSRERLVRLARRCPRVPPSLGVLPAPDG
Sequence of LIMK2, P53671 (P53671 143-248): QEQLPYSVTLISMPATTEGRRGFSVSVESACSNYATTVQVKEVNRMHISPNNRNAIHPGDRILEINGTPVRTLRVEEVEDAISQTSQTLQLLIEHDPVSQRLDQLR
Sequence of FRMPD2_1, Q68DX3 (Q68DX3 770-861): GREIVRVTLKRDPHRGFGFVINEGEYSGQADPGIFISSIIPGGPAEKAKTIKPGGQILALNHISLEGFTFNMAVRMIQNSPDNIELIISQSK
Sequence of Inadl_2, Q8NI35 (Q8NI35 238-335): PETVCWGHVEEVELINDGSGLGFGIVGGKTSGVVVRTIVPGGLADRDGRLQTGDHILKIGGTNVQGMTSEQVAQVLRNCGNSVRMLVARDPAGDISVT
Sequence of TJP2_1, Q9UDY2 (Q9UDY2 24-128): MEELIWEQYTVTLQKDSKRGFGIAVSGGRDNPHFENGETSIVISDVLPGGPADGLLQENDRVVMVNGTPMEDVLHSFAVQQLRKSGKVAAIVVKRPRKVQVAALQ
Sequence of GRIP2_3, Q9C0E4 (Q9C0E4 238-339): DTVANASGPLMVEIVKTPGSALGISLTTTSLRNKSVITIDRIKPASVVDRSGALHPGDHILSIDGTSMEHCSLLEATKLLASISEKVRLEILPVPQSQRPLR
Sequence of IL16_4, Q14005 (Q14005 1229-1329): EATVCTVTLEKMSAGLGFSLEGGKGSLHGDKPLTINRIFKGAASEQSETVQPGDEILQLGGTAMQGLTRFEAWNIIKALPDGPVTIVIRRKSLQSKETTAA
Sequence of MAGI2_4, Q86UL8 (Q86UL8 772-865): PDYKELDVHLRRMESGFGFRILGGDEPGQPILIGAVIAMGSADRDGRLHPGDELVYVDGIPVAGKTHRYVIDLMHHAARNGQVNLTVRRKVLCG
Sequence of NHERF2_2, Q15599 (Q15599 142-238): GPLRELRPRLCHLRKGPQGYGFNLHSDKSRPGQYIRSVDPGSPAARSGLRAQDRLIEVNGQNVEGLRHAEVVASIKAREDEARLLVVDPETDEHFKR
Sequence of FRMPD4, Q14CM0 (Q14CM0 67-160): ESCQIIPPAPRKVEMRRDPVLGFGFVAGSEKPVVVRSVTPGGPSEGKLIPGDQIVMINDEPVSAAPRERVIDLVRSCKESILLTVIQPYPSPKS
Sequence of DLG4_1, P78352 (P78352 62-152): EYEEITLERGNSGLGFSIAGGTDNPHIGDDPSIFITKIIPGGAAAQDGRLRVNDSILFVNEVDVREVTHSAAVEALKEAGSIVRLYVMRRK
Sequence of CASK, O14936 (O14936 487-570): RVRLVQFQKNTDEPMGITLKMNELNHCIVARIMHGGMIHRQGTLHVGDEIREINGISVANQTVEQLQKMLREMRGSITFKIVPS
Sequence of MAGI2_6, Q86UL8 (Q86UL8 1141-1229): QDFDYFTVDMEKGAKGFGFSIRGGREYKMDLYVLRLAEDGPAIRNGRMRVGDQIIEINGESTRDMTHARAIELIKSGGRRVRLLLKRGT
Sequence of DLG2_2, Q15700 (Q15700 189-283): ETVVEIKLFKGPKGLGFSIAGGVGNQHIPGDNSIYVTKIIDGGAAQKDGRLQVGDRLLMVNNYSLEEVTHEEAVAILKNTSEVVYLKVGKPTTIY

| pKd (LIMK2, P53671) | pKd (MPP6, Q9NZW5) | pKd (GRIP1_4, Q9Y3R0) | pKd (FRMPD2_1, Q68DX3) | pKd (CASK, O14936) | pKd (NHERF2_2, Q15599) | pKd (MAGI3_2, Q5TCQ9) | pKd (PCLO, Q9Y6V0) | pKd (GORASP2, Q9H8Y8) | pKd (ARHGAP21, Q5T5U3) | pKd (IL16_4, Q14005) | pKd (MAGI2_4, Q86UL8) | pKd (TJP2_1, Q9UDY2) | pKd (MPP2, Q14168) | pKd (FRMPD4, Q14CM0) | pKd (NHERF3_3, Q5T2W1) | pKd (GRID2IP_1, A4D2P6) | pKd (ARHGEF12, Q9NZN5-2) | pKd (DLG2_2, Q15700) | pKd (DLG4_1, P78352) | further results | Binder |
| --- | --- | --- | --- | --- | --- | --- | --- | --- | --- | --- | --- | --- | --- | --- | --- | --- | --- | --- | --- | --- | --- |
| below the threshold | 3.77 | below the threshold | below the threshold | below the threshold | 3.51 | 4.51 | below the threshold | below the threshold | below the threshold | 3.7 | 4.32 | below the threshold | below the threshold | 3.71 | below the threshold | below the threshold | 3.91 | 3.9 | 4.12 | pKd (APBA2_2, Q99767): below the threshold; pKd (APBA1_2, Q02410): 4.38; pKd (MAGI2_6, Q86UL8): 4.02; pKd (SNTA1, Q13424): 3.8; pKd (PDLIM1, O00151): below the threshold; pKd (Inadl_2, Q8NI35): below the threshold; pKd (GRIP2_3, Q9C0E4): below the threshold; pKd (DLG1_1, Q12959): 4.02 | GSSSKEGTSV [RRBP1, Q9P2E9] |
| below the threshold | below the threshold | below the threshold | below the threshold | below the threshold | 3.89 | below the threshold | below the threshold | below the threshold | 4.08 | below the threshold | below the threshold | below the threshold | below the threshold | 3.93 | below the threshold | below the threshold | below the threshold | below the threshold | below the threshold | pKd (APBA2_2, Q99767): below the threshold; pKd (APBA1_2, Q02410): below the threshold; pKd (MAGI2_6, Q86UL8): below the threshold; pKd (SNTA1, Q13424): below the threshold; pKd (PDLIM1, O00151): below the threshold; pKd (Inadl_2, Q8NI35): below the threshold; pKd (GRIP2_3, Q9C0E4): below the threshold; pKd (DLG1_1, Q12959): below the threshold | ADRDHASDQL [CTBP1, Q13363] |
